Experimental data from article PMC11276767.

Molecular target: Ca2+
Experiment: in situ Ca2+ titration of FRET with mNGΔN5-SOAR1L
Conditions: 25 µM digitonin, 10 µM ionomycin, EGTA

Work on STIM1 1-310-CFPΔC11 C49A; C56A yielded a Kd (cells transfected with CasRx-P4HB (P4HB knockdown), Hill n 2.8±0.09) of 740 µM, a Kd (cells transfected with CasRx-PDIA3 (PDIA3 knockdown), Hill n 2.8±0.12) of 750 µM and a Kd (cells transfected with control CasRx, Hill n 2.7±0.12) of 760 µM.
